Residue numbers refer to the chain shown, from its start.

B1: SPK002M A3 antibody (antibody, human IgG1, kappa, V domains shown)
VH: EVQLVESGGGLIQPGGSLRLSCAASTITVTSNYMSWVRQAPGKGLEWVSVIYPGGSTFYADSVKGRFTISADNSKNTLYLQMNSLRAEDTAVYYCARDLVVYGMDVWGQGTTVTVSS
VL: EIVLTQSPGTLSLSPGERATLSCRASQSVSSSYLAWYQQKPGQAPRLLIYGASSRATGIPGRFSGSGSGTDFTLTISRLEPEDFAVYYCQQGVTFGGGTKVEIKR
B2: SPK002M B2 antibody (antibody, human IgG1, kappa, V domains shown)
VH: B1 VH with T26I, A71Y
VL: B1 VL with V86I
B3: SPK002M B1 antibody (antibody, human IgG1, kappa, V domains shown)
VH: B1 VH with T26I, A71Y
VL: B1 VL with S31D, V86I, Q91Y
B4: SPK002M C3 antibody (antibody, human IgG1, kappa, V domains shown)
VH: B1 VH with T26I, A71T
VL: B1 VL
B5: SPK002M C2 antibody (antibody, human IgG1, kappa, V domains shown)
VH: B1 VH with T26I, I51A, A71T
VL: B1 VL
B6: SPK002M A4 antibody (antibody, human IgG1, kappa, V domains shown)
VH: B1 VH with T26V
VL: B1 VL
B7: SPK002M C1 antibody (antibody, human IgG1, kappa, V domains shown)
VH: B1 VH with T26I, I51A, A71T
VL: B1 VL with S31D, Q91Y
B8: SPK002M A6 antibody (antibody, human IgG1, kappa, V domains shown)
VH: B1 VH with T26G
VL: B1 VL with V86I
B9: SPK002M A5 antibody (antibody, human IgG1, kappa, V domains shown)
VH: B1 VH with T26V
VL: B1 VL with V86I
B10: SPK002M A1 antibody (antibody, human IgG1, kappa, V domains shown)
VH: B1 VH
VL: B1 VL with S28G, V29F
B11: SPK002M A2 antibody (antibody, human IgG1, kappa, V domains shown)
VH: B1 VH
VL: B1 VL with S28G

The target of the first test is T1, YU2 HIV-1 Env gp140 protein (HIV-1 YU2, UniProt P35961 32-670).
T1 construct: domain: gp140; also called gp140 (HIV-1 YU2); HIV gp140
The test can be described thus: polyreactivity ELISA (FIG. 1). On the technique in general: An ELISA detects its analyte on a solid surface through an enzyme-linked reagent.
In the case of B1, the binding result is listed as “no binding (tested: 4 µg/ml)”.
For the molecule B2, the binding result was “no binding (tested: 4 µg/ml)”.
The same measure, in the same setting: in the case of B3 it was “no binding (tested: 4 µg/ml)”; in that of B4, “no binding (tested: 4 µg/ml)”.
As to B5, the binding result was “no binding (tested: 4 µg/ml)”.
On the same count and under the same terms, in the case of B6 it was “no binding (tested: 4 µg/ml)”; in that of B7, “no binding (tested: 4 µg/ml)”; in that of B8, “no binding (tested: 4 µg/ml)”.
Still for that read-out and setting: in the case of B9 it was “no binding (tested: 4 µg/ml)”; in that of B10, “no binding (tested: 4 µg/ml)”.
Still for that read-out and setting: as for B11, the entry is “no binding (tested: 4 µg/ml)”.

Another test deals with T2, recombinant SARS-CoV-2 Spike RBD domain, Wuhan (SARS-CoV-2).
T2 construct: also called RBD Wuhan
The test can be described thus: ELISA on coated RBD.
With B1, the “Binding AUC” value came to 33.
Still for that read-out and setting: in the case of B2 it was 31.
The same measure, in the same setting: in the case of B3 it was 31; in that of B4, 34; in that of B5, 32.
The same measure, in the same setting: in the case of B6 it was 34; in that of B7, 32; in that of B9, 34.
In the case of B10, the “Binding AUC” value was found to be 33.
The same measure, in the same setting: as for B11, the figure is 33.

The next test addresses T2, recombinant SARS-CoV-2 Spike RBD …. Kind of test: competition ELISA, blocking of RBD binding to ACE2 ectodomain.
As to B1, the Blocking % was 94%.
On the same count and under the same terms, in the case of B2 it was 90%.
Same read-out and setting: in the case of B3 it was 87%; in that of B4, 88%; in that of B5, 88%.
Still for that read-out and setting: as for B6, the figure is 88%; as for B7, 94%.
For the molecule B9, the Blocking % is 89%.
As for B10, the Blocking % is 92%.
Take B11: the Blocking % was found to be 92%.

For the origin of these results see patent US12281155 (INSTITUT PASTEUR, dated 2025).
